In patent publication US20240366811A1, “RA[…] P[…] USES THEREOF” (TIANJIN CONJUSTAR BIOLOGICS CO., LTD., priority 2023, published 2024):
Read-outs that look alike come from different tables or passages of the source. *1 amine or outer side, *2 acyl side, *3 side chain or, on linkers, in order; H or OH if unused. Where a SMILES comes first, the peptide text is derived from it. Bridges are numbered along the chain shown (N, C = ends). [ ]: non-standard residue; d: D form. The star is where a group is joined. TATA = O=C(CC[*:1])N1CN(C(=O)CC[*:2])CN(C(=O)CC[*:3])C1; NOTA = O=C(O)CN1CCN(CC(=O)O)CCN(CC(=O)*)CC1; Hyp = O=C(O)[C@@H]1C[C@@H](O)CN1; hArg = N=C(N)NCCCC[C@H](N)C(=O)O; Pen = CC(C)(S)[C@H](N)C(=O)O; βAla = NCCC(=O)O; Sar = CNCC(=O)O

How the values were obtained:
in vivo = conditions: nude, mouse, iv, 11.1 MBq, total radioactivity
Method: The tissue distribution characteristics of the compounds in PC-3 tumor-bearing mice were studied by using the PC-3 tumor-bearing mice model, small animal PET/CT scans were performed at different time points after a single intravenous administration of the compounds, tumors and other regions of interest were delineated to obtain radioactive uptake values.
Tumor cells in the logarithmic growth phase were used for in vivo tumor inoculation. PC-3 cells were suspended in saline at a density of 5×10^6/mL, and a total of 15 nude mice were inoculated under the right flank at 0.1 mL per inoculation point. Imaging and biodistribution experiments were performed when tumors grew to 300-600 mm^3 (tumor volume measurement method: the long diameter and short diameter of the tumor were measured, and its volume calculation formula was: volume=0.5× major diameter× minor diameter^2). The drug was distributed according to the animal dose on the drug distribution table, and a certain volume of compound diluent was absorbed by a 1 mL insulin syringe, and the initial radioactive dose and initial dosimetry time were recorded. The injection time, residual radioactivity dose, and residual dose determination time were recorded after tail vein injection in tumor-bearing mice. […] PET/CT scans of animals were performed at different time points after administration. During the scanning process, the animals continued to inhale 1-2% isoflurane to maintain the anesthetic effect, and the scanning time was recorded. […] After the completion of PET/CT scanning, the images were reconstructed and the images and data were processed with the software of the device. The tumor, heart (including contents), kidney, intestine, and muscle were delineated as regions of interest. The percentage injection dose rate per gram of tissue in the area of interest (% ID/g) was obtained. The data of biological distribution was expressed as the percentage of radioactive count per gram of tissue or organ to the total dose (radioactive count) (% ID/g).
Data for each sampling point were expressed as the mean standard deviation (mean SD) of 3 tumor-bearing mice.

PC-3 tumor-bearing mice = conditions: 4 h, dissected tissue uptake ratio;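 note: dissected tissues were weighed and their radioactivity counted, uptake given as percent of administered dose per gram, tissue ratios derived from these values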
Method: In vivo radiobiological distribution assay: mice in the PET/CT imaging group were sacrificed immediately after the end of 4 h imaging, and mice in the inhibition group were sacrificed after 1 h imaging. Tissue samples of tumor, blood, heart, lung, liver, spleen, kidney, stomach, intestine, bone, muscle, and brain were collected by dissection, weighed and their radioactive counts were recorded. The probe uptake value in each tissue and organ of each experimental animal is expressed as radioactivity per gram of tissue as a percentage of the dose administered (% ID/g).

[1] = tumor and heart (including contents)

CC(C)C[C@@H]1NC(=O)[C@@H]2CSCCC(=O)N3CN(CN(C3)C(=O)CCSC(C)(C)[C@@H](C(N)=O)NC(=O)[C@H](CCCCNC(=N)N)NC(=O)[C@H](Cc3c[nH]c4ccccc34)NC(=O)[C@@H](CC(=O)O)NC(=O)[C@@H]3CCCN3C(=O)[C@H](Cc3c[nH]cn3)NC1=O)C(=O)CCSC[C@H](NC(=O)[C@@H]1CC(=O)NCCCC[C@H](NC(=O)CN(C)C(=O)CN(C)C(=O)CN(C)C(=O)CN(C)C(=O)CN(C)C(=O)CN(C)C(=O)CN(C)C(=O)CN(C)C(=O)CN(C)C(=O)CN(C)C(=O)CCNC(=O)CN3CCN(CC(=O)O)CCN(CC(=O)O)CC3)C(=O)N[C@@H](CCCCNC(=N)N)C(=O)N1)C(=O)N1C[C@H](O)C[C@H]1C(=O)N[C@@H](CC(C)C)C(=O)N[C@@H](C(C)C)C(=O)N[C@@H](CC(N)=O)C(=O)N1CCC[C@H]1C(=O)N[C@@H](CC(C)C)C(=O)N2 [Example 3] ({NOTA-βAla}-[Sar][Sar][Sar][Sar][Sar][Sar][Sar][Sar][Sar][Sar]K[hArg]DC[Hyp]LVNPLCLHP[dD]W[hArg][Pen]-NH2; lactam 11-13; linker 14-21-28 via TATA)
tissue uptake at 8 min (in vivo; liver): 1.94 ± 0.35 %ID/g | tissue uptake at 11 min (in vivo; liver): 1.6 ± 0.23 %ID/g | tissue uptake at 14 min (in vivo; liver): 1.44 ± 0.23 %ID/g | tissue uptake at 17 min (in vivo; liver): 1.23 ± 0.15 %ID/g | tissue uptake at 20 min (in vivo; liver): 1.14 ± 0.14 %ID/g | tissue uptake at 23 min (in vivo; liver): 1.07 ± 0.14 %ID/g | tissue uptake at 26 min (in vivo; liver): 0.97 ± 0.16 %ID/g | tissue uptake at 29 min (in vivo; liver): 0.91 ± 0.1 %ID/g | tissue uptake at 0.5 h (in vivo; liver): 0.92 ± 0.07 %ID/g | tissue uptake at 1 h (in vivo; liver): 0.59 ± 0.21 %ID/g | tissue uptake at 2 h (in vivo; liver): 0.22 ± 0.04 %ID/g | tissue uptake at 4 h (in vivo; liver): 0.13 ± 0.05 %ID/g | tissue uptake at 2 min (in vivo; muscle): 1.06 ± 0.1 %ID/g | tissue uptake at 5 min (in vivo; muscle): 1.02 ± 0.18 %ID/g | tissue uptake at 8 min (in vivo; muscle): 0.97 ± 0.16 %ID/g | tissue uptake at 11 min (in vivo; muscle): 0.91 ± 0.19 %ID/g | tissue uptake at 14 min (in vivo; muscle): 0.82 ± 0.12 %ID/g | tissue uptake at 17 min (in vivo; muscle): 0.74 ± 0.13 %ID/g | tissue uptake at 20 min (in vivo; muscle): 0.69 ± 0.11 %ID/g | tissue uptake at 23 min (in vivo; muscle): 0.66 ± 0.14 %ID/g | tissue uptake at 26 min (in vivo; muscle): 0.67 ± 0.16 %ID/g | tissue uptake at 29 min (in vivo; muscle): 0.56 ± 0.11 %ID/g | tissue uptake at 0.5 h (in vivo; muscle): 0.55 ± 0.15 %ID/g | tissue uptake at 1 h (in vivo; muscle): 0.26 ± 0.05 %ID/g | tissue uptake at 2 h (in vivo; muscle): 0.07 ± 0.02 %ID/g | tissue uptake at 4 h (in vivo; muscle): 0.03 ± 0.01 %ID/g | tissue to tissue ratio at 0.5 h (in vivo; [1]): 1.23 ± 0.25 | tissue to tissue ratio at 1 h (in vivo; [1]): 2.08 ± 0.74 | tissue to tissue ratio at 2 h (in vivo; [1]): 6.97 ± 3.01 | tissue to tissue ratio at 4 h (in vivo; [1]): 15.9 ± 5.85 | tissue to tissue ratio at 0.5 h (in vivo; tumor and kidney): 0.12 ± 0.01 | tissue to tissue ratio at 1 h (in vivo; tumor and kidney): 0.13 ± 0.03 | tissue to tissue ratio at 2 h (in vivo; tumor and kidney): 0.12 ± 0.06 | tissue to tissue ratio at 0.5 h (in vivo; tumor and liver): 1.57 ± 0.14 | tissue to tissue ratio at 1 h (in vivo; tumor and liver): 2.24 ± 0.68 | tissue to tissue ratio at 2 h (in vivo; tumor and liver): 4.53 ± 1.44 | tissue to tissue ratio at 0.5 h (in vivo; tumor and muscle): 2.69 ± 0.47 | tissue to tissue ratio at 1 h (in vivo; tumor and muscle): 5.01 ± 0.82 | tissue to tissue ratio at 2 h (in vivo; tumor and muscle): 15.6 ± 3.52 | tissue to tissue ratio at 4 h (in vivo; tumor and muscle): 31.4 ± 9.05 | tissue uptake at 2 min (in vivo; tumor): 1.37 ± 0.21 %ID/g | tissue uptake at 5 min (in vivo; tumor): 1.41 ± 0.13 %ID/g | tissue uptake at 8 min (in vivo; tumor): 1.45 ± 0.13 %ID/g | tissue uptake at 11 min (in vivo; tumor): 1.46 ± 0.09 %ID/g | tissue uptake at 14 min (in vivo; tumor): 1.46 ± 0.07 %ID/g | tissue uptake at 17 min (in vivo; tumor): 1.48 ± 0.08 %ID/g | tissue uptake at 20 min (in vivo; tumor): 1.51 ± 0.13 %ID/g | tissue uptake at 23 min (in vivo; tumor): 1.46 ± 0.09 %ID/g | tissue uptake at 26 min (in vivo; tumor): 1.46 ± 0.13 %ID/g | tissue uptake at 29 min (in vivo; tumor): 1.45 ± 0.14 %ID/g | tissue uptake at 0.5 h (in vivo; tumor): 1.43 ± 0.13 %ID/g | tissue uptake at 1 h (in vivo; tumor): 1.27 ± 0.28 %ID/g | tissue uptake at 2 h (in vivo; tumor): 1.04 ± 0.45 %ID/g | tissue uptake at 4 h (in vivo; tumor): 0.98 ± 0.46 %ID/g | Tumor/blood (PC-3 tumor-bearing mice; mouse S1): 24.89 | Tumor/bone (PC-3 tumor-bearing mice; mouse S1): 4.39 | Tumor/brain (PC-3 tumor-bearing mice; mouse S1): 44.40 | Tumor/heart (PC-3 tumor-bearing mice; mouse S1): 16.45 | Tumor/intestine (PC-3 tumor-bearing mice; mouse S1): 12.02 | Tumor/kidney (PC-3 tumor-bearing mice; mouse S1): 0.08 | Tumor/liver (PC-3 tumor-bearing mice; mouse S1): 7.63 | Tumor/lung (PC-3 tumor-bearing mice; mouse S1): 10.25 | Tumor/muscle (PC-3 tumor-bearing mice; mouse S1): 11.01 | Tumor/spleen (PC-3 tumor-bearing mice; mouse S1): 7.58 | Tumor/stomach (PC-3 tumor-bearing mice; mouse S1): 22.84 | Tumor/blood (PC-3 tumor-bearing mice; mouse S2): 3.88 | Tumor/bone (PC-3 tumor-bearing mice; mouse S2): 1.30 | Tumor/brain (PC-3 tumor-bearing mice; mouse S2): 40.18 | Tumor/heart (PC-3 tumor-bearing mice; mouse S2): 7.47 | Tumor/intestine (PC-3 tumor-bearing mice; mouse S2): 7.64 | Tumor/kidney (PC-3 tumor-bearing mice; mouse S2): 0.04 | Tumor/liver (PC-3 tumor-bearing mice; mouse S2): 4.34 | Tumor/lung (PC-3 tumor-bearing mice; mouse S2): 4.78 | Tumor/muscle (PC-3 tumor-bearing mice; mouse S2): 2.89 | Tumor/spleen (PC-3 tumor-bearing mice; mouse S2): 4.03 | Tumor/stomach (PC-3 tumor-bearing mice; mouse S2): 14.71 | Tumor/blood (PC-3 tumor-bearing mice; mouse S3): 36.90 | Tumor/bone (PC-3 tumor-bearing mice; mouse S3): 7.02 | Tumor/brain (PC-3 tumor-bearing mice; mouse S3): 91.90 | Tumor/heart (PC-3 tumor-bearing mice; mouse S3): 30.12 | Tumor/intestine (PC-3 tumor-bearing mice; mouse S3): 27.31 | Tumor/kidney (PC-3 tumor-bearing mice; mouse S3): 0.10 | Tumor/liver (PC-3 tumor-bearing mice; mouse S3): 8.30 | Tumor/lung (PC-3 tumor-bearing mice; mouse S3): 19.01 | Tumor/muscle (PC-3 tumor-bearing mice; mouse S3): 19.97 | Tumor/spleen (PC-3 tumor-bearing mice; mouse S3): 10.00 | Tumor/stomach (PC-3 tumor-bearing mice; mouse S3): 34.54
